This is an account of results in paper PMC9672406 (The Journal of Biological Chemistry, 2022).

The series concerns the molecule itself. Put plainly: AUC.

B1: MqnA from Streptomyces coelicolor (chorismate dehydratase), wild type (enzyme)
chain: DNSRTRPRVGHIQFLNCLPLYWGLARTGTLLDFELTKDTPEKLSEQLVRGDLDIGPVTLVEFLKNADDLVAFPDIAVGCDGPVMSCVIVSQVPLDRLDGARVALGSTSRTSVRLAQLLLSERFGVQPDYYTCPPDLSLMMQEADAAVLIGDAALRANMIDGPRYGLDVHDLGALWKEWTGLPFVFAVWAARRDYAEREPVITRKVHEAFLASRNLSLEEVEKVAEQAARWEAFDEDTLAKYFTTLDFRFGAPQLEAVTEFARRVGPTTGFPADVKVELLKP
In the case of B1, the “stoichiometry N” value came out at 2.
